# Measured values published in patent publication US20240368233A1 (University of Washington, published 2024).
# B1: LHD289 chainA (designed binder)
# chain: GRQEKVLKSIEETVRKMGVTMLTHRHGNVVFVVILGLHKQQALQLLRDVHRTAHKQGVTLSITFSGDIVVIAVTVGASEEEKKEVRKIVKEIAKQLRHAETEEEAKEIVQRVIEEWQEEG
# notes: also called LHD289A
# B2: LHD284 chainA (designed binder)
# chain: TDELLERLRQLFEELHERGTIIIVEVHINGERQTKYLILAPKEELKKHLERIREKIEREGSSEVEVKVTSGGTTWTFNEK
# notes: also called LHD284A
# B3: DF275A-1 (designed binder)
# chain: HHHHHHGSGSGRQEKVLKSIEETVRKMGVEMLTFRAGKAVIVVIRGLHPEQAKQLLRDVSQTAHKQGVTVTLTFHGDVVFILVLVGASEEQQRAMQLLIQALARIIHEAKRRGVSEEQLKRMIEAAARLIEVLLKALEAAREGNTDEVREQLQRALEIVREIGLTAAVRLALLVVEAVATLAAKRGNTDAVREALEVALEIARESGTTEAVKLALEVVARVAIEAARRGNTDAVREALEVALEIARESGTTEAVKLALEVVARVAIEAARRGNTDAVREALAVAVKIALKSGTEEAFRLAKEVIKRVSDEAKKQGNEDAVKEAESFDAAAELILSLLKLFRELHERGTEIVVEVHINGRKTEIEVQGIDKRLLQIILEVIIEEIAREGPDKVEVNVHSGGQTWTFRYGGS
# notes: Bivalent connector
# B4: DFA0 (designed binder)
# chain: TTNFHLINGSEEARQLIEKAVRAISKKEGTEVHFEKSDGTLEIRVKNLHEKREREIKKVIELILEVAAAERIVRERPGSNLAKKALEIILRAAEELAKADVDAALEAAVRAAEKVVREQPGSNLAKKALEIILRAAEELAKLPDPEALKEAVKAAEKVVREQPGSNLAKKALEIILRAAEELAKLPDPEALKEAVKAAEKVVREQPGSNLAKKALEIILRAAAALANLPDPESRKEADKAADKVRREQPGSELAVVAAIISAVARMGVKMELHPSGNEVKVVIKGLHIKQQRQLYRDVREAAKKAGVEVEIEVEGDTVTIVVRGGSHHWGSGSHHHHHH
# notes: Bivalent connector
# B5: LHD275 chainA (designed binder)
# chain: GRQEKVLKSIEETVRKMGVEMLTFRAGNAVIVVIRGLHPEQAKQLLRDVSQTAHKQGVTVTLTFHGDVVFILVLVGASEEEQKHMQERIQELARIIHEAKRRGVSEEQLREIAEKMAKEIQEWG
# notes: also called LHD275A
# B6: LHD278 chainA (designed binder)
# chain: GRQEKVLKSIEETVRKMGVRMLTHRGGNAVIVVIEGLHPSQIKQLMQDVIKTAKKQGVTVTITVSGDIVVIMVVVGASDEEQEEARRLVQEIARALQEAKRKGANEEQLEQLLRELLERAEREG
# notes: also called LHD278A
# B7: LHD298 chainA (designed binder)
# chain: GRQEKVLKSIEETVRKMGVTMETHRSGNTVKVVIKGLHESQQEQLHKDVEETVQKEGVFVLVSHHGDTVTIQVYE
# notes: also called LHD298A
# Experiments:
# 289B [1] = molecular target: T1, 289B; assay: BLI, steady state fit
# T1 construct: also called LHD289 B; LHD289 chainB
# T1 chain: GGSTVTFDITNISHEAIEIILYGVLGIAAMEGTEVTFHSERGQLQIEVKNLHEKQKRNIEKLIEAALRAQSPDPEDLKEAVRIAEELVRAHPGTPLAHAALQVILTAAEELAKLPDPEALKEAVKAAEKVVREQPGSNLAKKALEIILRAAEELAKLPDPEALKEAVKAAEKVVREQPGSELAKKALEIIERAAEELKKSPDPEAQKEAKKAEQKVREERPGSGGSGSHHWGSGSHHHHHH
# Procedure: (§1) Biolayer interferometry experiments were performed on an OctetRED96 BLI system (ForteBio, Menlo Park, CA). Streptavidin coated biosensors were first equilibrated for at least 10 minutes in Octet buffer (10 mM HEPES pH 7.4, 150 mM NaCl, 3 mM EDTA, 0.05% Surfactant P20) supplemented with 1 mg/ml Bovine Serum Albumin (SigmaAldrich). Enzymatically biotinylated designs were immobilized onto the biosensors by dipping the biosensors into a solution with 10-50 nM protein for 30-120 s. This was followed by dipping in fresh octet buffer to establish a baseline for 120 s. Titration experiments were performed at 25° C. while rotating at 1,000 r.p.m. Association of designs was allowed by dipping biosensors in solutions containing designed protein diluted in octet buffer until equilibrium was approached followed by dissociation by dipping the biosensors into fresh buffer solution in order to monitor the dissociation kinetics. Steady-state and global kinetic fits were performed using the manufacturer's software (Data Analysis 9.1) assuming a 1:1 binding model.
# 289B [2] = molecular target: T1, 289B; assay: BLI, global kinetic fit, 1:1 model
# Procedure: as §1
# 284B [3] = molecular target: T2, 284B; assay: BLI, steady state fit
# T2 construct: also called LHD284 B; LHD284 chainB
# T2 chain: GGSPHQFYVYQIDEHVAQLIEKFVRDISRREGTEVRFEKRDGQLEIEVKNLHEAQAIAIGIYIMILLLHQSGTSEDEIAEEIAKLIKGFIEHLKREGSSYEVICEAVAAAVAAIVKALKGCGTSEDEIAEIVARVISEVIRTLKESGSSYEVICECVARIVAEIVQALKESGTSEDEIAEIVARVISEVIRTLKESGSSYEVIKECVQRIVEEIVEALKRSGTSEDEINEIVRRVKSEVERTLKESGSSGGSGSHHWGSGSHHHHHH
# Procedure: as §1
# 284B [4] = molecular target: T2, 284B; assay: BLI, global kinetic fit, 1:1 model
# Procedure: as §1
# 275B [5] = molecular target: T3, 275B; assay: SEC of mixed components; tetramer (control pentamer) listed in Table 6, neighbours in the chain
# T3 construct: also called LHD275 B; LHD275B
# T3 chain: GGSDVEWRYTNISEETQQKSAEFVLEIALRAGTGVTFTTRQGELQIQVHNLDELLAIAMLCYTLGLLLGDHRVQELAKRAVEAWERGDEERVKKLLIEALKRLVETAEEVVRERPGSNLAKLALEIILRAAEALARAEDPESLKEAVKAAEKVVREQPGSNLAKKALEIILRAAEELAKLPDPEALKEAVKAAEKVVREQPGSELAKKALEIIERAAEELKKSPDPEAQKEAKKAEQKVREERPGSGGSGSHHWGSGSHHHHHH
# Procedure: (§2) Complexes and individual components were diluted in 20 mM Tris pH 8.0, 100 mM NaCl. After o/n equilibration of the mixtures at room temperature or 4 degrees C., 500 ul of sample was injected onto a Superdex™ 200 10/300 increase GL (dimers, linear assemblies) or Superose™ 6 increase 10/300 GL (symmetric assemblies) (all columns from GE healthcare) using the absorbance at 230 nm or 473 nm (for GFP tagged components) as read-out. Dimers were mixed at monomer concentrations of 5 μM or higher. Trimer and ABCD tetramer mixtures contained 5 μM of the bivalent connector, and 7.5 μM of each terminal cap (lower absolute concentrations with the same ratios were used for some trimers). ABCA tetramer mixtures contained 5 μM per bivalent connector and 15 μM terminal cap. The hexamer mixture contained 3 μM of components C and D, 3.6 μM of B and E, and 4.4 μM of A and F. The branched assembly shown in FIG. 4A contained 2.8 μM of the trivalent connector and 4 μM of each cap. For the exchange experiment shown in FIG. 5A, the ABC trimer was preincubated at concentrations of 6 μM B and 9 μM each of A and C. C′ was then added to reach a final concentration of 2 μM B, 3 μM each of A and C, and 6 μM C′.
# DFB-1 = molecular target: T4, DFB-1; assay: SEC of mixed components; linear tetramer listed in Table 6, neighbours in the chain
# T4 construct: Bivalent connector
# T4 chain: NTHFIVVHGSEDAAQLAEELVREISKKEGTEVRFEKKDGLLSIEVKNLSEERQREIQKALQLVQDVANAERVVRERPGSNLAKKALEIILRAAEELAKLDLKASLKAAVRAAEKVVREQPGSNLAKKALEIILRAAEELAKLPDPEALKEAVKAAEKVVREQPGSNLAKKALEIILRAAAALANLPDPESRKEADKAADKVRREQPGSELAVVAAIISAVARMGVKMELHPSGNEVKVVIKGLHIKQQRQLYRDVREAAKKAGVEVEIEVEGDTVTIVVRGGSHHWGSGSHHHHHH
# DFB0 = molecular target: T5, DFB0; assay: as above
# T5 construct: Bivalent connector
# T5 chain: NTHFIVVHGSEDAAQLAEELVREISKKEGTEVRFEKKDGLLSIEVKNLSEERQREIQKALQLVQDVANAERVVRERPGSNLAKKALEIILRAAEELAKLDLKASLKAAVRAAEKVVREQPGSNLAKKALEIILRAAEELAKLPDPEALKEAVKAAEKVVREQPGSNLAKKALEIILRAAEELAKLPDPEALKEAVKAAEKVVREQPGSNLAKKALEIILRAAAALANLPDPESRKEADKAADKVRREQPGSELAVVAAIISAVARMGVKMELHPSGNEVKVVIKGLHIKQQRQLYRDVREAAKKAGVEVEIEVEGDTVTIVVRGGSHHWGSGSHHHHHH
# DF206 = molecular target: T6, DF206; assay: SEC of mixed components; tetramer (control pentamer) listed in Table 6, neighbours in the chain
# T6 construct: Bivalent connector
# T6 chain: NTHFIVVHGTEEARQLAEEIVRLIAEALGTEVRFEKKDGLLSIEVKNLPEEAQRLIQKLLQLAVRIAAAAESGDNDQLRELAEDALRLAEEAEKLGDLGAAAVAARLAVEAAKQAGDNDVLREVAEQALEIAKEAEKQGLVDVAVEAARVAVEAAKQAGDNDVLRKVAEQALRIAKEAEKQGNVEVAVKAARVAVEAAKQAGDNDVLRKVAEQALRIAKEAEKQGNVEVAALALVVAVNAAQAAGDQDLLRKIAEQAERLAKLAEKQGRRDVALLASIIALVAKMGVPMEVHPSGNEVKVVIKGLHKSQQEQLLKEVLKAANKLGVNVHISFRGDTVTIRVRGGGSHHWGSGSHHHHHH
# Procedure: as §2
# DF202 = molecular target: T7, DF202; assay: SEC of mixed components; trimer listed in Table 6
# T7 construct: Bivalent connector
# T7 chain: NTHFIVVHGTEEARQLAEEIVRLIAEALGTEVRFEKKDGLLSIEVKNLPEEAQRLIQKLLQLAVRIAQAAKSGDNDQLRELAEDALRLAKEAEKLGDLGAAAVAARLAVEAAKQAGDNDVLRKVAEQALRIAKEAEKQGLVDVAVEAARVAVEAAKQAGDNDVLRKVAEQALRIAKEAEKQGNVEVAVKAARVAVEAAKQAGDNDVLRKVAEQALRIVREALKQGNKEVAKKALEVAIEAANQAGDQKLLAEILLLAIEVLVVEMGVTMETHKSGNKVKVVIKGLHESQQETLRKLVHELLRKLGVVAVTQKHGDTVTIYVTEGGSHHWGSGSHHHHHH
# 275B [6] = molecular target: T3, 275B; assay: BLI, steady state fit
# Procedure: as §1
# [7] = molecular target: the molecule itself; assay: SEC titration of the protomer alone at several injection concentrations (Superdex 75, normalised A230); self-association
# 275B [8] = molecular target: T3, 275B; assay: BLI, global kinetic fit, 1:1 model
# Procedure: as §1
# 278B [9] = molecular target: T8, 278B; assay: BLI, steady state fit
# T8 construct: also called LHD278 B; LHD278 chainB
# T8 chain: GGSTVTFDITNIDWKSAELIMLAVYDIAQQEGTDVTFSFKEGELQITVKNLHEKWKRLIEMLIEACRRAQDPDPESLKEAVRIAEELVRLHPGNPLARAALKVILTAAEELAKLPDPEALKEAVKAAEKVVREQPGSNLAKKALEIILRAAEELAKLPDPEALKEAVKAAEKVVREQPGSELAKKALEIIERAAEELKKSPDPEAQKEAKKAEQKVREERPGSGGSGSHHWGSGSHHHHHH
# Procedure: as §1
# 278B [10] = molecular target: T8, 278B; assay: BLI, global kinetic fit, 1:1 model
# Procedure: as §1
# 298B [11] = molecular target: T9, 298B; assay: BLI, steady state fit
# T9 construct: also called LHD298 B; LHD298 chainB
# T9 chain: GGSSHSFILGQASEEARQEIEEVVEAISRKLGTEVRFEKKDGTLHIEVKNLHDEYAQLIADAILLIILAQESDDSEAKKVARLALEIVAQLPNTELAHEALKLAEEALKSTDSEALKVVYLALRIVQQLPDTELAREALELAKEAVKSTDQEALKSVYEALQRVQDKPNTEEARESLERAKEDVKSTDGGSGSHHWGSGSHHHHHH
# Procedure: as §1
# 298B [12] = molecular target: T9, 298B; assay: BLI, global kinetic fit, 1:1 model
# Procedure: as §1
binder,measurement,setting,value
B1,Kd,289B [1],610 nM
same,Kd,289B [2],1080 nM
same,koff,289B [2],0.057 s⁻¹
same,kon,289B [2],53000 M⁻¹ s⁻¹
B2,Kd,284B [3],97 nM
same,Kd,284B [4],8.9 nM
same,koff,284B [4],0.0012 s⁻¹
same,kon,284B [4],130000 M⁻¹ s⁻¹
B3,binding result,275B [5],binds
B4,binding result,DFB-1,binds
same,binding result,DFB0,binds
same,binding result,DF206,binds
same,binding result,DF202,binds
B5,Kd,275B [6],4.5 nM
same,binding result,[7],no binding (tested: 8.0 uM)
same,Kd,275B [8],2.9 nM
same,koff,275B [8],0.00041 s⁻¹
same,kon,275B [8],140000 M⁻¹ s⁻¹
B6,Kd,278B [9],3.4 nM
same,binding result,[7],no binding (tested: 52.4 uM)
same,Kd,278B [10],0.8 nM
same,koff,278B [10],0.00022 s⁻¹
same,kon,278B [10],290000 M⁻¹ s⁻¹
B7,Kd,298B [11],16 nM
same,Kd,298B [12],3.5 nM
same,koff,298B [12],0.00022 s⁻¹
same,kon,298B [12],64000 M⁻¹ s⁻¹
